# Test results taken from patent US20140363428A1 (Chugai, published 2014).
# Changes are numbered by the printed parent chain. Numbers in names are those of the source.
# B1: Fv-4-F946 (antibody, human IgG1, kappa)
# heavy: QVQLQESGPGLVKPSETLSLTCAVSGHSISHDHAWSWVRQPPGEGLEWIGFISYSGITNYNPSLQGRVTISRDNSKNTLYLQMNSLRAEDTAVYYCARSLARTTAMDYWGEGTLVTVSSASTKGPSVFPLAPSSKSTSGGTAALGCLVKDYFPEPVTVSWNSGALTSGVHTFPAVLQSSGLYSLSSVVTVPSSSLGTQTYICNVNHKPSNTKVDKKVEPKSCDKTHTCPPCPAPELLGGPSVFLFPPKPKDVLYISRTPEVTCVVVDVSHEDPEVKFNWYVDGVEVHNAKTKPREEQYNSTYRVVSVLQVLHADWLNGKEYKCKVSNKALPAPIEKTISKAKGQPREPQVYTLPPSRDELTKNQVSLTCLVKGFYPSDIAVEWESNGQPENNYKTTPPVLDSDGSFFLYSKLTVDKSRWQQGNVFSCSVMHEALHYHVTQKSLSLSP
# light: DIQMTQSPSSLSASVGDSVTITCQASTDISSHLNWYQQKPGKAPELLIYYGSHLLSGVPSRFSGSGSGTDFTFTISSLEAEDAATYYCGQGNRLPYTFGQGTKVEIERTVAAPSVFIFPPSDEQLKSGTASVVCLLNNFYPREAKVQWKVDNALQSGNSQESVTEQDSKDSTYSLSSTLTLSKADYEKHKVYACEVTHQGLSSPVTKSFNRGEC
# notes: VH3-F946 and VL3-CK
# B2: Fv-4-F1080 (antibody, human IgG1, kappa, name in EU numbering)
# heavy: B1 heavy with V252T, Q309T, A313Q, S426N, V438Y
# light: B1 light
# modifications: additional N-glycosylation found by SDS-PAGE (S424N)
# B3: GA2-IgG1 (antibody, V domains shown)
# VH: QVQLVQSGAEVKKPGSSVKVSCKASGGTFSSYAISWVRQAPGQGLEWMGGIIPIFGTANYAQKFQGRVTITADESTSTAYMELSSLRSEDTAVYYCARPRWETAISSDAFDIWGQGTMVTVSS
# VL: DIQMTQSPSSLSASVGDRVTITCRASQSISDDLNWYQQKPGKAPKLLIYEASNLQSGVPSRFSGSGSGTDFTLTISSLQPEDFATYYCQQHSSSPLTFGQGTKVEIKR
# Columns and labels:
# [1] = target: T1, soluble human FcRn (heterodimer of FcRn alpha chain and beta2-microglobulin) (human, UniProt P55899 24-297; P61769 21-119); assay: statement in Example 3
# T1 construct: Signal regions are part of the expressed constructs; also called hFcRn
# [2] = target: T1, soluble human FcRn (heterodimer of FcRn …); assay: SPR, hFcRn at pH 7.0
# human IgA [3] = target: T2, human IgA (human); assay: SPR Biacore T200, 37 C; pH 5.8, 1.2 mM Ca; steady state affinity
# T2 construct: Recombinant antigen; variable region derived from an anti-human IL-6 receptor antibody; also called hIgA
# Experimental: (§1) The antibodies isolated as described in 8-2 were assessed for their hIgA-binding activity (dissociation constant KD (M)) using Biacore T200 (GE Healthcare). Running buffers used in the measurement were 0.05% tween20/20 mmol/L ACES/150 mmol/L NaCl (pH 7.4 or 5.8) containing 3 microM or 1.2 mM CaCl₂.
# (§2) The antibody was allowed to bind to Sensor chip CM5 (GE Healthcare) immobilized with a suitable amount of recombinant Protein A/G (Thermo Scientific) by the amino coupling method. Then, an appropriate concentration of hIgA (described in 8-1) was injected as an analyte to allow interaction with the antibody on the sensor chip. The measurement was carried out at 37 degrees C. After the measurement, 10 mmol/L glycine-HCl (pH 1.5) was injected to regenerate the sensor chip. The dissociation constant KD (M) was calculated from the measurement result by curve fitting analysis and equilibrium parameter analysis using Biacore T200 Evaluation Software (GE Healthcare).
# human IgA [4] = target: T2, human IgA; assay: SPR Biacore T200, 37 C; pH 5.8, 3 microM Ca; steady state affinity
# Experimental: as §1, §2
# human IgA [5] = target: T2, human IgA; assay: SPR Biacore T200, 37 C; pH 7.4, 3 microM Ca; steady state affinity
# Experimental: as §1, §2
# human IgA [6] = target: T2, human IgA; assay: SPR Biacore T200, 37 C, Ab on Protein A/G, hIgA analyte; pH 7.4, 1.2 mM Ca; 1:1 binding model
# Experimental: as §1, §2
# human IgA [7] = target: T2, human IgA; assay: SPR Biacore T200, 37 C, Ab on Protein A/G, hIgA analyte; pH 7.4, 1.2 mM Ca; 1:1 binding model; pH 7.4, 1.2 mM Ca; 1:1 binding model
# Experimental: as §1, §2
# T2 sequence (VH, as listed by the source): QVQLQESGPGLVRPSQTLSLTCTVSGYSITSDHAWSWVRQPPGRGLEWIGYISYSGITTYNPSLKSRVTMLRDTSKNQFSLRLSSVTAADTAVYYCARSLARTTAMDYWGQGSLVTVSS
# T1 sequence (P55899 24-297 limits assumed, chain 1 of 2): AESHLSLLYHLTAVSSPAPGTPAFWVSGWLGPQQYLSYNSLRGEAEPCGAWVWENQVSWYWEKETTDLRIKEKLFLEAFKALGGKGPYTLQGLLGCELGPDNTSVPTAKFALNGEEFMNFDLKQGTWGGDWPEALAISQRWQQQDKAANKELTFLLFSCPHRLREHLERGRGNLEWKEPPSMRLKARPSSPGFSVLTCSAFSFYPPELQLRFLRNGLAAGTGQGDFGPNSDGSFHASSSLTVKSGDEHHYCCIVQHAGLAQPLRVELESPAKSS
# T1 sequence (P61769 21-119 limits assumed, chain 2 of 2): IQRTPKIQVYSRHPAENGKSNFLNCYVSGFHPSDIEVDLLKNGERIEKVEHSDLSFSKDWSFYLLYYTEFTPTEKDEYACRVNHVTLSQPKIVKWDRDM
binder,measurement,setting,value
B1,binding result,[1],binds
B2,binding result,[2],binds
B3,Kd,human IgA [3],4 µM
same,Kd,human IgA [4],5 µM
same,Kd,human IgA [5],6.7 µM
same,Kd,human IgA [6],0.039 µM
same,kon,human IgA [7],400000 M⁻¹ s⁻¹
